These are literature values, as cited in paper PMC8416071.

A word on the Kd: it is the free concentration of one partner at which half of the binding sites on the other are occupied at equilibrium, for simple one-to-one binding.

The data set concerns the target Spike protein (SARS-CoV) (UniProt P59594). As to the kind of experiment: ITC.

Take Griffithsin (from UniProt P84801): the Kd was 24.9 nM.
